From the RNAGym collection of RNA variant scans (doi:10.1073/pnas.2313332121)

B1: TPR t1 (parent)
chain: GACCAAUCUGCCCUCAGAGCUCGAGAACAUCUUCGGAUGCAGAGGAGGCAGGCUUCGGUGGCGCGAUAGCGCCAACGUCCUCAACCUCCAAUGCAUCCCACCACAUGAUGAUGCCUGAAGAGCCUUGGUUUUUUG

Variants of: B1
Experiment: polymerase ribozyme fitness, log enrichment relative to wild type (log ratio); higher = more active; in vitro selection for triplet polymerase activity
How it was run: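 Mutant libraries of each subunit of a heterodimeric triplet polymerase ribozyme were built by PCR and transcribed. Each library went through one round of in vitro selection in triplicate: annealing with biotinylated primer, partner subunit and triplets, frozen incubation at −7 °C, gel excision of extended constructs, streptavidin-bead capture and RT-PCR. Input and output libraries were Illumina-sequenced; only genotypes with ≥10 input reads and ≥1 read per output were kept. Fitness is log2(genotype enrichment/wild-type enrichment), using inverse-variance-weighted replicate averages.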

Variant	polymerase ribozyme fitness (log ratio)
C11U U92C G127A	-3.76
G47C G60C U109A U112G	-7.01
G10C C13G C94A	-0.274
C40U G60A A95U G117C A121C	-6.15
C11G U54C C62A A95C G128C	-3.23
U21A G44A G113C	-3.04
A2U A5U C8A C79G C115G	-5.43
C12A G60A C88A C101A C102A	-4.87
C73U C99A C115A U125G	-6.08
G63U C64A	-6.48
C62U U130A	-0.419
A105C G120U	-2.25
C20U C76G C89U C104A C115U	-5.63
C53U A108U	-6.86
C12G C22A A41G G71U C124A	-4.76
G10U C15U A18U C49A C70U C80A G93U G117U	-7.04
C104A C114A	-4.74
C11A C72A A91G U126G	-5.33
C56U G113U C123G	-2.01
A91U U106G	-4.85
U9G C13A C22G G48A	-3.85

Variant	polymerase ribozyme fitness (log ratio)
A18G U106A U109C	-3.8
C4G C12U	-2.1
A43C U92G C101A U132A	-4.9
C8A G60A U78A U92C	-1.3
G51C G61A G120A U132A	-2.03
G10A G47U A83G	-2.7
G61A U116C	-0.278
A37G G71U C114A A119C	-5.35
G17U C49A G69C U109C C115A	-7.12
C20U G35C G60U	-5.9
C31G G45C C64G G113U	-5.01
A18C G71C A121C C123U C124U	-3.96
C4U G17C G69U	-2.09
G36A C64U	-0.622
A29C G61C U87A	-4.41
C34U C56A C82A A83U C97A A121U	-5.4
A41U U78A U112C	0.679
C12U G71U	0.0835
A2G A41C G42A C82G C89A U92G G120U	-5.77
C53U G60A A84C	-0.485
C8G C34A C72G C82U G110U	-4.9

Variant	polymerase ribozyme fitness (log ratio)
A26C G47C U112A	-4.78
U7G G45C C88A C115A	2.03
C15G C20A G69U U81A C124A	-1.08
C22G C34G C70A C123A	-6.39
G10C A50C G69U G110A G113C	-6.42
A29U C56U C123U	-0.0509
C11A U30C U81A C104G A111U A119G U132C	-6.53
C89A U129C	-2.03
A6G U7A C53U C80G C101A	-5.66
U7G C28U G48A	-1.75
A6C U30G A43C C88U C97G U109G	-6.22
G42A G61A A83U A121U	0.412
C3G G120C	-0.918
C11G C40A C72U C101U C104U G135U	-0.627
A74G C79A C82A U112A	-2.42
C49A U78A G120C	0.377
C56U C80A C97U	-2.71
G19U A37C C56U A84C	-3.87
C80U A103G	-5.21
C49U U116G	-2.41
U59A C79U G110A A119C	-3.05

Variant	polymerase ribozyme fitness (log ratio)
C13G G71C U112C G117C U125C	-5.67
U54G U87A	-0.0841
G110C G135C	-4.01
G10A C15U G47A U112A C124A G127C	-1.98
C12U A26U C34A G63A A90C C104U G113C	-6.57
C3U C40U U78C G113A G120A C123A	-2.82
C15U A111C U130A	-1.29
G51U U112A	-3.68
C64U U78C A83C A100C C101G U129G	-3.92
U67G C88U A111G U116A	-7.24
C62U U109A	-4.57
C8A C12A	0.497
A41G G42U C73G C104A	-5.43
G10U U59A G71U	-2.51
A29G G63C	-1.45
C12U C15U G61C C104U	-1.43
C56U C62U	-0.378
C13A A18C G36A G42U A84C	-4.45
G51C G57C C73A G77U U78G	-3.02
A5U C62U C72U	-0.208
